The results in this text go back to US20220064276A1 (SCHOLAR ROCK, published 2022).

Assay [1] deals with T1, mouse LTBP1-proTGFβ1 complex (mouse, UniProt Q8CG19 339-1712; P04202 30-390). In words: cell-based or functional assay.
Assay [2] concerns the target LTBP-proTGFβ1: transfected human proTGFβ1 presented by endogenous LTBP1/3 of LN229 cells (human). In words: cell-based or functional assay.
The target in assay [3] is T2, human LTBP3-proTGFβ1 complex (human, UniProt Q9NS15 44-1303; P01137 30-390, limits assumed).
T2 construct: Exemplary entries; also called Hu LTBP3-proTGFβ1; huLTBP3 proTGFb1
In words: Octet BLI, IgG captured. On the procedure: (§1) Binding affinities of the optimized antibodies were measured by Octet against human LTBP1-proTGFβ1, human LTBP3-proTGFβ1, mouse LTBP1-proTGFβ1, mouse LTBP3-proTGFβ1, and GARP-proTGFβ1 complexes, essentially as described in Example 6. […] The antigens were allowed to associate for 3 minutes followed by a 5-minute dissociation. Kinetics buffer (ForteBio®) was used throughout the experiment, and KD was determined using a 1:1 fitting model for each antibody antigen pair.

Assay [4] addresses T1, mouse LTBP1-proTGFβ1 complex. In words: Octet BLI, IgG captured. On the procedure:
as §1

Assay [5] concerns the target T3, mouse LTBP3-proTGFβ1 complex (mouse, UniProt Q61810 41-1245; P04202 30-390, limits assumed).
T3 construct: Exemplary entries; also called Mo LTBP3-proTGFβ1; Murine LTBP3 proTGFb1
In words: Octet BLI, IgG captured. On the procedure: as §1

For assay [6], the target named is T4, human LTBP1-proTGFβ1 complex (human, UniProt Q14766 347-1721; P01137 30-390).
T4 construct: Large latent complex: one presenting molecule disulfide-linked to a proTGFβ1 dimer; also called Hu LTBP1-proTGFβ1; huLTBP1 proTGFβ1
In words: Octet BLI, IgG captured. On the procedure: as §1

The target in assay [7] is T5, human GARP-proTGFβ1 complex (human, UniProt Q14392 18-627; P01137 30-390, limits assumed).
T5 construct: Exemplary entries; also called Hu GARP-proTGFβ1; huGARP proTGFb1
In words: Octet (bio-layer interferometry), response at 200 nM antigen; 0.1 nm cutoff designates meaningful binding. On the procedure: This experiment was performed at 200, 100, 50, and 25 nM human GARP proTGFb1 and human LTBP1 proTGFbl. […] Surface plasmon resonance (SPR)-based assays

Changes are numbered by the printed parent chain.

T2 sequence (Q9NS15 44-1303 limits assumed, chain 1 of 2): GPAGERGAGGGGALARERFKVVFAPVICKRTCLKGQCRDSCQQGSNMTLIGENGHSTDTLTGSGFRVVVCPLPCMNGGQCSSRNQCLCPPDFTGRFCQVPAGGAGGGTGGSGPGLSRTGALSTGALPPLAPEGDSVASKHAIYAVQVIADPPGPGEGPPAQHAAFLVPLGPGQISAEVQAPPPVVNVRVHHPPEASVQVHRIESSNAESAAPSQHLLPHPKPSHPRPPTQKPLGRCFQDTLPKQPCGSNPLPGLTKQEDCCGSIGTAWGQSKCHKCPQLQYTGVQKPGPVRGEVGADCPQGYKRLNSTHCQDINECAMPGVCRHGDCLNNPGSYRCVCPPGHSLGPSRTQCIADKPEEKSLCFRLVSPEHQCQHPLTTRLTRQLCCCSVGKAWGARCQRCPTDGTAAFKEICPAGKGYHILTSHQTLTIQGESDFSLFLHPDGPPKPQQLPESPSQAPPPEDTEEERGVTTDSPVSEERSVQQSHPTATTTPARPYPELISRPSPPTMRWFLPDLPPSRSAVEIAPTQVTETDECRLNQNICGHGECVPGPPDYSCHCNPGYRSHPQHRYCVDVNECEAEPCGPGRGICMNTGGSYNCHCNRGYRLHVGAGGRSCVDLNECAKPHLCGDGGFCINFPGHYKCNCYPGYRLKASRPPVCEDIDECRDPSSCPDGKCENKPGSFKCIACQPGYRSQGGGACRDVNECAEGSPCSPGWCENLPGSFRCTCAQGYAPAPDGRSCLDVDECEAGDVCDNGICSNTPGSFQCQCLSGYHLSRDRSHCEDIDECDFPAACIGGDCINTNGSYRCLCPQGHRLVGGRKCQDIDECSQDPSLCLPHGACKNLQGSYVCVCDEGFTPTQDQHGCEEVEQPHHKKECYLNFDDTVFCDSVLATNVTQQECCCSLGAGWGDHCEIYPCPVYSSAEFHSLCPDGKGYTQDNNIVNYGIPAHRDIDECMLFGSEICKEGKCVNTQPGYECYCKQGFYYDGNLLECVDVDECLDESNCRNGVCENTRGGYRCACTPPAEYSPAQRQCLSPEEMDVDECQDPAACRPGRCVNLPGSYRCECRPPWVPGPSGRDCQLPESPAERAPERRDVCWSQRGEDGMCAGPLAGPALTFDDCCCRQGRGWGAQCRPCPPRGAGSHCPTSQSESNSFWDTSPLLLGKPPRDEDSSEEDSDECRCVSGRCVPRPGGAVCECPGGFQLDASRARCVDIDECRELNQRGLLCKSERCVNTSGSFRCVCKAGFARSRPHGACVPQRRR
T2 sequence (P01137 30-390 limits assumed, chain 2 of 2): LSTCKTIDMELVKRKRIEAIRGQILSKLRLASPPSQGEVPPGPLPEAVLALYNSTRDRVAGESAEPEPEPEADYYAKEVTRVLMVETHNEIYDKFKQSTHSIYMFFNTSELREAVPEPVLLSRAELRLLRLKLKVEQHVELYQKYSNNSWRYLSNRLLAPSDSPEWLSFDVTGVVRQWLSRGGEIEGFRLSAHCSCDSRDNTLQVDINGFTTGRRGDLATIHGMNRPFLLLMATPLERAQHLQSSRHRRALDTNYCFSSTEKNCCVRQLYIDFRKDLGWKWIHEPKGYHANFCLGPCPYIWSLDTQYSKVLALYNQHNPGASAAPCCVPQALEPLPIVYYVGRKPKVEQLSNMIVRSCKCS
T1 sequence (Q8CG19 339-1712 limits assumed, chain 1 of 2): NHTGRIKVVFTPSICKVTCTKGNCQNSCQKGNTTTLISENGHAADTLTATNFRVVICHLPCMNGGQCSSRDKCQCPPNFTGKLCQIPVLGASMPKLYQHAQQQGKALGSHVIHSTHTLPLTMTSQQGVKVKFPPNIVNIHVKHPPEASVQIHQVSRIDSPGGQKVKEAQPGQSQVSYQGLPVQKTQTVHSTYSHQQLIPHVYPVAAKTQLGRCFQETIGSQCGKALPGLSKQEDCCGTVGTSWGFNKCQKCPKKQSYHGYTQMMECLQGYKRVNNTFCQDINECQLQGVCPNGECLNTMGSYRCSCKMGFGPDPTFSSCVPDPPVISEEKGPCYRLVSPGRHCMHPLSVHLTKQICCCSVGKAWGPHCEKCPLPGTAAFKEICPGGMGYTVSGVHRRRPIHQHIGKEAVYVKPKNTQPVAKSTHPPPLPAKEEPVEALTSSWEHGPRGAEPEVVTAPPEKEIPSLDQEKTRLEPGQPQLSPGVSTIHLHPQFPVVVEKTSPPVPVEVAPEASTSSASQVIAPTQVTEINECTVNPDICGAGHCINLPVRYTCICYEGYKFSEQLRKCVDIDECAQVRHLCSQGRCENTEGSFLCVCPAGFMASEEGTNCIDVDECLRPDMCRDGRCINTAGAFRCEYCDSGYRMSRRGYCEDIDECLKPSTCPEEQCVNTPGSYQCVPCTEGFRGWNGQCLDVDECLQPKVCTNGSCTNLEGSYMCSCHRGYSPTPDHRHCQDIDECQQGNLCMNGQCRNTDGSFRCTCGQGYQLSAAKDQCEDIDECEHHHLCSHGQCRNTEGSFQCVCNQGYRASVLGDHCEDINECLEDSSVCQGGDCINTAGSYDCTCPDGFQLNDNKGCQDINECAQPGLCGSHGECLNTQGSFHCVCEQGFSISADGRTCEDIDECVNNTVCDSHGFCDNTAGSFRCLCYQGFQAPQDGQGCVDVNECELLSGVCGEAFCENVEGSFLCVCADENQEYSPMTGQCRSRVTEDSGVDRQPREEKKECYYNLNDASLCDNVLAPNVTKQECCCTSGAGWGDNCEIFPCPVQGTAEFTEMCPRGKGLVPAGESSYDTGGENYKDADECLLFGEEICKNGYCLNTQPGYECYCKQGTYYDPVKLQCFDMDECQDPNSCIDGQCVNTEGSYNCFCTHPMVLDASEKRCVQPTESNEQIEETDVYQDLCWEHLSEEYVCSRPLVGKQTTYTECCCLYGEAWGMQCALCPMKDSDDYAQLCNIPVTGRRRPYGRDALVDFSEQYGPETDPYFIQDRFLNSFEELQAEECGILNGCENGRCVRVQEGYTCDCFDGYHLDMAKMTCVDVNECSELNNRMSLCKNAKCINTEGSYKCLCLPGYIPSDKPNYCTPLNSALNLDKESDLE
T1 sequence (P04202 30-390 limits assumed, chain 2 of 2): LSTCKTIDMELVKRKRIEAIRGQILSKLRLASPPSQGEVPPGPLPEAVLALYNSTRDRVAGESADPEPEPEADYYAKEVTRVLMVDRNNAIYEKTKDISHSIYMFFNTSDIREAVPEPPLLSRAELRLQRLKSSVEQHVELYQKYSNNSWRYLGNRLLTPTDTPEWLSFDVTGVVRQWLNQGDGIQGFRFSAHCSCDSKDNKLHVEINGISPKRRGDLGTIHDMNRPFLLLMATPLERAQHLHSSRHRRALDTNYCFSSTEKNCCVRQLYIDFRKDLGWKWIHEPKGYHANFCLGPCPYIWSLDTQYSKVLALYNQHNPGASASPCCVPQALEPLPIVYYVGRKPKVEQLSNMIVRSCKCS
T4 sequence (Q14766 347-1721 limits assumed, chain 1 of 2): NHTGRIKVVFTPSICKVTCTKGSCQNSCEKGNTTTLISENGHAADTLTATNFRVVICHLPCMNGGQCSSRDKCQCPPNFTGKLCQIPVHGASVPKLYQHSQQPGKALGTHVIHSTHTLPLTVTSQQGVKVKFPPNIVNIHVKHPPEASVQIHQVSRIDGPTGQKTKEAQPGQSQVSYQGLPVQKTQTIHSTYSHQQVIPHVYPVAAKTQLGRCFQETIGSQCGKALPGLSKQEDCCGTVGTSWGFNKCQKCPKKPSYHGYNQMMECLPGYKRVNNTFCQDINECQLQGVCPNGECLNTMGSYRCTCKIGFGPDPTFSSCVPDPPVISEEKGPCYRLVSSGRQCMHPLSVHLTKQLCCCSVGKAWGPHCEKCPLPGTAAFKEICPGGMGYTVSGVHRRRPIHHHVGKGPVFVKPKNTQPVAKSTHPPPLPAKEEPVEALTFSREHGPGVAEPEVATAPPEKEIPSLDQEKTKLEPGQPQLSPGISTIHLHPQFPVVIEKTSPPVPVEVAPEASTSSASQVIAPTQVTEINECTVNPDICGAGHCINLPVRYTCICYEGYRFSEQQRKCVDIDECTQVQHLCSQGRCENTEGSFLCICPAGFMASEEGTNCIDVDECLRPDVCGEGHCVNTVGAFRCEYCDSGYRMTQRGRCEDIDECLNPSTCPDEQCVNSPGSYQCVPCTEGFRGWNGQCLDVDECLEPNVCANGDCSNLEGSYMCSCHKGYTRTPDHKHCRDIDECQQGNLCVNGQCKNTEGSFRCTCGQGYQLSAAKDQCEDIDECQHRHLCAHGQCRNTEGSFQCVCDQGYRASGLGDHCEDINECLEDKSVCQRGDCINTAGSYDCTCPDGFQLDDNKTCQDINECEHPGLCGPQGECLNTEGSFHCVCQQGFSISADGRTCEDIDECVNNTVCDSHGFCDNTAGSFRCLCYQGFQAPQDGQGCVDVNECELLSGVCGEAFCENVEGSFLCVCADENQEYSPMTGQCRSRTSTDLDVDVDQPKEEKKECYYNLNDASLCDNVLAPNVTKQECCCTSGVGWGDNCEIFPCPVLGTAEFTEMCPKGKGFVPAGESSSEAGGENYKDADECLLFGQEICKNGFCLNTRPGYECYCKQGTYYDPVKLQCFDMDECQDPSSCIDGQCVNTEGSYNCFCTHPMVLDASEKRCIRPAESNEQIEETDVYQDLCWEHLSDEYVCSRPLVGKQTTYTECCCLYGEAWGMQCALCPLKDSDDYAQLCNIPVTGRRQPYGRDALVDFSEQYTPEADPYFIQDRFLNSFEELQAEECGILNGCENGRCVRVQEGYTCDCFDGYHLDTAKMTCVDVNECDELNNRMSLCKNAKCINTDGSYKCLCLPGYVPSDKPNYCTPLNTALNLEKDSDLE
T4 sequence (P01137 30-390 limits assumed, chain 2 of 2): as the sequence (P01137 30-390 limits assumed, chain 2 of 2) above
Chain of LTBP-proTGFβ1: transfected human proTGFβ1 presented by endogenous LTBP1/3 of LN229 cells (human) (P01137 30-390): as the sequence (P01137 30-390 limits assumed, chain 2 of 2) above

B1: SR-AB63 (antibody, IgG1, V domains shown)
VH: QLQLQESGPGLVKPSETLSLTCTVSGGSIRSSSYYWGWIRQPPGKGLEWIGSISYSATTYYNPSLKSRVTISVDTSKNQFSLKLSSVTAADTAVYYCAGDPSYDSIAGMQVWGQGTTVTVSS
VL: DIQLTQSPSSLSASVGDRVTITCRASQSISSYLNWYQQKPGKAPKLLIYAASNLQSGVPSRFSGSGSGTDFTLTISSLQPEDFATYYCQQSFDWPLTFGGGTKVEIK
notes: Cycle 3, lineage SR-AB26
Turning to B1, the “IC50, mLTBP1 assay (CAGA12 luciferase)” value in assay [1] turned out to be 208 pM. Moreover, in assay [2], the “IC50, endogenous hLTBP assay (CAGA12 luciferase)” value was 1780 pM. Moreover, the Kd was determined as 494 pM in assay [3], 1090 pM in assay [4], 2000 pM in assay [5] and 611 pM in assay [6]. For the same molecule, the koff in assay [3] was found to be 7.84e-05 s⁻¹; in assay [6], 7.24e-05 s⁻¹. The kon in assay [3] turned out to be 159000 M⁻¹ s⁻¹; in assay [6] it was 118000 M⁻¹ s⁻¹.

B2: SR-AB64 (antibody, IgG1, V domains shown)
VH: B1 VH
VL: B1 VL with L4M, S31Y, A50S, N53S, L54R, S91G, W94F
notes: Cycle 3, lineage SR-AB26
B2: the binding result in assay [7] is “no binding (tested: 200 nM)”. Moreover, the “IC50, mLTBP1 assay (CAGA12 luciferase)” value in assay [1] came out at 268 pM. Also, the “IC50, endogenous hLTBP assay (CAGA12 luciferase)” value in assay [2] came out at 3120 pM. The Kd in assay [3] turned out to be 471 pM; in assay [4] it was 1030 pM; in assay [5], 2850 pM; in assay [6], 467 pM. In assay [3], this molecule yielded a koff of 9.18e-05 s⁻¹. This molecule displayed a kon in assay [3] of 195000 M⁻¹ s⁻¹.
